The target of this experiment is T1, biotinylated recombinant human BCMA (ACROS Cat #BC7-H82F0) (human, UniProt Q02223 1-54, biotinylated (site not stated)).
T1 construct: Bought reagent; also called CD269; B-cell maturation antigen
T1 sequence (looked up): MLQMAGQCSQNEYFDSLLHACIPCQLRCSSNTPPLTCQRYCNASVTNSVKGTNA
Description: flow cytometry of CAR T cells stained with biotinylated recombinant antigen. (In general: In flow cytometry, cells or beads pass a laser one at a time.)

B1: anti-BCMA CAR comprising the amino acid sequence of SEQ ID NO: 86 (other)
chain: QVQLVQSGAELKKPGASVKVSCKASGNTLTNYVIHWVRQAPGQRLEWMGYILPYNDLTKYSQKFQGRVTITRDKSASTAYMELSSLRSEDTAVYYCTRWDWDGFFDPWGQGTTVTVSSGGGGSGGGGSGGGGSEIVMTQSPATLSVSPGERASISCRASQSLVHSNGNTHLHWYQQRPGQAPRLLIYSVSNRFSEVPARFSGSGSGTDFTLTISSVESEDFAVYYCSQTSHIPYTFGGGTKLEIKSAAAFVPVFLPAKPTTTPAPRPPTPAPTIASQPLSLRPEACRPAAGGAVHTRGLDFACDIYIWAPLAGTCGVLLLSLVITLYCNHRNRKRGRKKLLYIFKQPFMRPVQTTQEEDGCSCRFPEEEEGGCELRVKFSRSADAPAYQQGQNQLYNELNLGRREEYDVLDKRRGRDPEMGGKPRRKNPQEGLYNELQKDKMAEAYSEIGMKGERRRGKGHDGLYQGLSTATKDTYDALHMQALPPR
notes: Chimeric antigen receptor on engineered human T cells
Turning to B1, the binding result is recorded as “binds”.

For the origin of these results see US20220008473A1 (CRISPR THERAPEUTICS, published 2022).
